Results on 94 variants are retold here after the supplement of paper PMC10567573.

B1: PRKX (parent)
chain: KLLVVDRTRRLGNMKNGANDVKHH
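Also: lentivirally expressed fusions sorted by FACS into six bins by GFP to DsRed ratio, PSI derived from sequencing read proportions per bin multiplied by bin number.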

Variants of B1 are the subject of this data set. Briefly: protein stability index of a GFP-peptide fusion (GPS, HEK-293T) (PSI 1-6); higher = more stable. As to conditions: c terminus: a fixed tail appended.
In the case of KLLVVDDTRRLGNMKNGANDVKHH [R7D], the protein stability index was 4.05.

In the case of KLLVVDFTRRLGNMKNGANDVKHH [R7F], the protein stability index was 1.83.

With KLLVVDETRRLGNMKNGANDVKHH [R7E], the protein stability index amounted to 3.7.

Regarding KLLVVDCTRRLGNMKNGANDVKHH [R7C], the protein stability index came out at 2.6.

Consider KLLVVDATRRLGNMKNGANDVKHH [R7A], for which the protein stability index came to 3.79.

Turning to KLLAVDRTRRLGNMKNGANDVKHH [V4A], the protein stability index stood at 3.31.

Take KLLYVDRTRRLGNMKNGANDVKHH [V4Y]: the protein stability index worked out at 3.32.

Consider KLLTVDRTRRLGNMKNGANDVKHH [V4T], for which the protein stability index came out at 3.4.

For the variant KLLPVDRTRRLGNMKNGANDVKHH [V4P], the protein stability index amounted to 3.87.

Consider KLLNVDRTRRLGNMKNGANDVKHH [V4N], for which the protein stability index stood at 3.6.

Take KLLEVDRTRRLGNMKNGANDVKHH [V4E]: the protein stability index was 3.46.

For KLLDVDRTRRLGNMKNGANDVKHH [V4D], the protein stability index is 3.77.

KLLWVDRTRRLGNMKNGANDVKHH [V4W]: the protein stability index was 2.66.

For the variant KLLMVDRTRRLGNMKNGANDVKHH [V4M], the protein stability index came out at 2.57.

As for KLLIVDRTRRLGNMKNGANDVKHH [V4I], the protein stability index is 2.46.

As for KLLFVDRTRRLGNMKNGANDVKHH [V4F], the protein stability index was found to be 2.61.

Take KLLGVDRTRRLGNMKNGANDVKHH [V4G]: the protein stability index came to 3.32.

Turning to KLLCVDRTRRLGNMKNGANDVKHH [V4C], the protein stability index amounted to 3.17.

For KLLKVDRTRRLGNMKNGANDVKHH [V4K], the protein stability index turned out to be 2.7.

With KLLHVDRTRRLGNMKNGANDVKHH [V4H], the protein stability index worked out at 3.62.

KLLRVDRTRRLGNMKNGANDVKHH [V4R]: the protein stability index turned out to be 2.86.

For the variant KLLLVDRTRRLGNMKNGANDVKHH [V4L], the protein stability index turned out to be 3.

As for KLLQVDRTRRLGNMKNGANDVKHH [V4Q], the protein stability index was 3.19.

Consider KLLSVDRTRRLGNMKNGANDVKHH [V4S], for which the protein stability index is 3.65.

With KLLVIDRTRRLGNMKNGANDVKHH [V5I], the protein stability index came to 2.33.

As to KLLVQDRTRRLGNMKNGANDVKHH [V5Q], the protein stability index turned out to be 3.11.

Turning to KLLVDDRTRRLGNMKNGANDVKHH [V5D], the protein stability index stood at 4.07.

On to KLLVCDRTRRLGNMKNGANDVKHH [V5C], for which the protein stability index was 3.72.

Turning to KLLVWDRTRRLGNMKNGANDVKHH [V5W], the protein stability index was found to be 2.33.

With KLLVSDRTRRLGNMKNGANDVKHH [V5S], the protein stability index is 3.62.

With KLLVNDRTRRLGNMKNGANDVKHH [V5N], the protein stability index is 3.3.

Consider KLLVPDRTRRLGNMKNGANDVKHH [V5P], for which the protein stability index was 3.62.

On to KLLVMDRTRRLGNMKNGANDVKHH [V5M], for which the protein stability index turned out to be 2.95.

Consider KLLVLDRTRRLGNMKNGANDVKHH [V5L], for which the protein stability index worked out at 2.6.

Turning to KLLVFDRTRRLGNMKNGANDVKHH [V5F], the protein stability index came to 2.65.

For KLLVTDRTRRLGNMKNGANDVKHH [V5T], the protein stability index worked out at 3.67.

Regarding KLLVEDRTRRLGNMKNGANDVKHH [V5E], the protein stability index is 4.08.

Regarding KLLVRDRTRRLGNMKNGANDVKHH [V5R], the protein stability index came to 3.31.

KLLVHDRTRRLGNMKNGANDVKHH [V5H]: the protein stability index was 3.41.

As for KLLVKDRTRRLGNMKNGANDVKHH [V5K], the protein stability index was found to be 3.56.

KLLVADRTRRLGNMKNGANDVKHH [V5A]: the protein stability index amounted to 3.74.

For KLLVYDRTRRLGNMKNGANDVKHH [V5Y], the protein stability index was determined as 2.61.

For the variant KLLVGDRTRRLGNMKNGANDVKHH [V5G], the protein stability index came out at 3.32.

As to KNLVVDRTRRLGNMKNGANDVKHH [L2N], the protein stability index came to 4.03.

Take KILVVDRTRRLGNMKNGANDVKHH [L2I]: the protein stability index was 2.99.

For KSLVVDRTRRLGNMKNGANDVKHH [L2S], the protein stability index is 4.13.

Regarding KHLVVDRTRRLGNMKNGANDVKHH [L2H], the protein stability index was determined as 3.68.

As for KWLVVDRTRRLGNMKNGANDVKHH [L2W], the protein stability index was found to be 2.87.

KVLVVDRTRRLGNMKNGANDVKHH [L2V]: the protein stability index amounted to 3.52.

KPLVVDRTRRLGNMKNGANDVKHH [L2P]: the protein stability index amounted to 4.29.

On to KRLVVDRTRRLGNMKNGANDVKHH [L2R], for which the protein stability index worked out at 3.69.

Turning to KMLVVDRTRRLGNMKNGANDVKHH [L2M], the protein stability index was 3.5.

With KKLVVDRTRRLGNMKNGANDVKHH [L2K], the protein stability index amounted to 3.99.

Consider KYLVVDRTRRLGNMKNGANDVKHH [L2Y], for which the protein stability index was found to be 3.04.

Regarding KQLVVDRTRRLGNMKNGANDVKHH [L2Q], the protein stability index stood at 4.39.

For the variant KTLVVDRTRRLGNMKNGANDVKHH [L2T], the protein stability index turned out to be 3.61.

With KLLVVQRTRRLGNMKNGANDVKHH [D6Q], the protein stability index came to 2.03.

For the variant KLLVVERTRRLGNMKNGANDVKHH [D6E], the protein stability index amounted to 2.94.

For the variant KLLVVSRTRRLGNMKNGANDVKHH [D6S], the protein stability index was 2.81.

As to KLLVVYRTRRLGNMKNGANDVKHH [D6Y], the protein stability index worked out at 2.29.

For the variant KLLVVHRTRRLGNMKNGANDVKHH [D6H], the protein stability index is 2.82.

For the variant KLLVVCRTRRLGNMKNGANDVKHH [D6C], the protein stability index was 2.01.

On to KLLVVWRTRRLGNMKNGANDVKHH [D6W], for which the protein stability index turned out to be 1.69.

KLLVVARTRRLGNMKNGANDVKHH [D6A]: the protein stability index was 2.19.

As to KLLVVFRTRRLGNMKNGANDVKHH [D6F], the protein stability index was found to be 3.18.

For KLLVVLRTRRLGNMKNGANDVKHH [D6L], the protein stability index came to 1.98.

With KLLVVTRTRRLGNMKNGANDVKHH [D6T], the protein stability index worked out at 2.52.

KLLVVKRTRRLGNMKNGANDVKHH [D6K]: the protein stability index turned out to be 2.55.

For the variant KLLVVMRTRRLGNMKNGANDVKHH [D6M], the protein stability index was determined as 1.97.

Regarding KLLVVNRTRRLGNMKNGANDVKHH [D6N], the protein stability index was determined as 2.95.

Regarding KLLVVPRTRRLGNMKNGANDVKHH [D6P], the protein stability index was 2.94.

For the variant KLLVVVRTRRLGNMKNGANDVKHH [D6V], the protein stability index was 2.26.

Regarding KLLVVRRTRRLGNMKNGANDVKHH [D6R], the protein stability index was found to be 2.14.

For the variant KLLVVIRTRRLGNMKNGANDVKHH [D6I], the protein stability index was 2.87.

With KLLVVGRTRRLGNMKNGANDVKHH [D6G], the protein stability index was 2.29.

Turning to KLSVVDRTRRLGNMKNGANDVKHH [L3S], the protein stability index came out at 4.29.

On to KLHVVDRTRRLGNMKNGANDVKHH [L3H], for which the protein stability index stood at 4.

On to KLCVVDRTRRLGNMKNGANDVKHH [L3C], for which the protein stability index is 3.74.

Consider KLPVVDRTRRLGNMKNGANDVKHH [L3P], for which the protein stability index stood at 3.72.

For KLTVVDRTRRLGNMKNGANDVKHH [L3T], the protein stability index came out at 4.16.

With KLGVVDRTRRLGNMKNGANDVKHH [L3G], the protein stability index was 3.93.

For KLRVVDRTRRLGNMKNGANDVKHH [L3R], the protein stability index turned out to be 3.87.

On to KLEVVDRTRRLGNMKNGANDVKHH [L3E], for which the protein stability index is 4.33.

Regarding KLKVVDRTRRLGNMKNGANDVKHH [L3K], the protein stability index turned out to be 3.55.

With KLDVVDRTRRLGNMKNGANDVKHH [L3D], the protein stability index is 4.38.

As for KLFVVDRTRRLGNMKNGANDVKHH [L3F], the protein stability index is 2.72.

Turning to KLAVVDRTRRLGNMKNGANDVKHH [L3A], the protein stability index turned out to be 3.92.

Consider KLWVVDRTRRLGNMKNGANDVKHH [L3W], for which the protein stability index turned out to be 3.29.

As for KLNVVDRTRRLGNMKNGANDVKHH [L3N], the protein stability index was found to be 3.62.

As to KLYVVDRTRRLGNMKNGANDVKHH [L3Y], the protein stability index came to 2.69.

In the case of KLIVVDRTRRLGNMKNGANDVKHH [L3I], the protein stability index was 3.31.

In the case of KLMVVDRTRRLGNMKNGANDVKHH [L3M], the protein stability index came to 3.66.

As for KLVVVDRTRRLGNMKNGANDVKHH [L3V], the protein stability index stood at 2.86.

KLQVVDRTRRLGNMKNGANDVKHH [L3Q]: the protein stability index turned out to be 3.68.
